Drawing on publication PMC2928751 (2010), this text covers response for two variants.

The chains are these.
B1: Gli3(280-478), wild type [modified: [35S]-methionine labelled; [35S]-methionine labelled] [human] / GST-JNK1 [human] (parent complex)
chain 1: SSPRLSARPSRKRTLSISPLSDHSFDLQTMIRTSPNSLVTILNNSRSSSSASGSYGHLSASAISPALSFTYSSAPVSLHMHQQILSRQQSLGSAFGHSPPLIHPAPTFPTQRPIPGIPTVLNPVQVSSGPSESSQNKPTSESAVSSTGDPMHNKRSKIKPDEDLPSPGARGQQEQPEGTTLVKEEGDKDESKQEPEVIY
chain 2: MSRSKRDNNFYSVEIGDSTFTVLKRYQNLKPIGSGAQGIVCAAYDAILERNVAIKKLSRPFQNQTHAKRAYRELVLMKCVNHKNIIGLLNVFTPQKSLEEFQDVYIVMELMDANLCQVIQMELDHERMSYLLYQMLCGIKHLHSAGIIHRDLKPSNIVVKSDCTLKILDFGLARTAGTSFMMTPYVVTRYYRAPEVILGMGYKENVDLWSVGCIMGEMVCHKILFPGRDYIDQWNKVIEQLGTPCPEFMKKLQPTVRTYVENRPKYAGYSFEKLFPDVLFPADSEHNKLKASQARDLLSKMLVIDASKRISVDEALQHPYINVWYDPSEAEAPPPKIPDKQLDEREHTIEEWKELIYKEVMDLEERTKNGVIRGQPSPLAQVQQ
B2: Gli3(280-478), wild type [modified: [35S]-methionine labelled; [35S]-methionine labelled] [human] / GST-JNK3 [human] (parent complex)
chain 1: B1 chain 1
chain 2: MSLHFLYYCSEPTLDVKIAFCQGFDKQVDVSYIAKHYNMSKSKVDNQFYSVEVGDSTFTVLKRYQNLKPIGSGAQGIVCAAYDAVLDRNVAIKKLSRPFQNQTHAKRAYRELVLMKCVNHKNIISLLNVFTPQKTLEEFQDVYLVMELMDANLCQVIQMELDHERMSYLLYQMLCGIKHLHSAGIIHRDLKPSNIVVKSDCTLKILDFGLARTAGTSFMMTPYVVTRYYRAPEVILGMGYKENVDIWSVGCIMGEMVRHKILFPGRDYIDQWNKVIEQLGTPCPEFMKKLQPTVRNYVENRPKYAGLTFPKLFPDSLFPADSEHNKLKASQARDLLSKMLVIDPAKRISVDDALQHPYINVWYDPAEVEAPPPQIYDKQLDEREHTIEEWKELIYKEVMNSEEKTKNGVVKGQPSPSAQVQQ

Variants of B1 are the subject of the first test. The experiment in a line: GST pull-down of in vitro translated protein, quantified; 30 µg GST-JNK1; read off a plot.
chain 1 R11A, chain 1 K12A, chain 1 R13A, chain 1 L15A, chain 1 I17A: the response was ~0.2 % of input (axis unlabelled; 5% input bar = 5).

The variants in the next test derive from B2. In words: GST pull-down of in vitro translated protein, quantified; 20 µg GST-JNK3; read off a plot.
chain 1 R11A, chain 1 K12A, chain 1 R13A, chain 1 L15A, chain 1 I17A: the response was ~0.35 % of input (axis unlabelled; 5% input bar = 5).
